Test results as given in patent US20230219996A1.

Tests used:
[1] = molecular target: SARS-CoV-2 spike (B.1.1.7, UK, Alpha) (SARS-CoV-2); test: MSD V-PLEX ACE2 kit, sVNT, positive control; competitor ACE2 (NHP study)
[2] = molecular target: SARS-CoV-2 spike (B.1.351, South Africa, Beta) (SARS-CoV-2); test: as above
[3] = molecular target: SARS-CoV-2 spike (P.1, Brazil, Gamma) (SARS-CoV-2); test: as above
[4] = molecular target: SARS-CoV-2 spike (B.1.1.7, UK, Alpha) (SARS-CoV-2); test: MSD V-PLEX ACE2 kit, sVNT, positive control; competitor ACE2 (mouse study)
[5] = molecular target: SARS-CoV-2 spike (B.1.351, South Africa, Beta) (SARS-CoV-2); test: as above
[6] = molecular target: SARS-CoV-2 spike (P.1, Brazil, Gamma) (SARS-CoV-2); test: as above

Measured: ACE2-binding percent inhibition

ACE2 Calibration Reagent (included in the MSD kit)
100%: [1] | [2] | [3] | [4] | [5] | [6]
